Measured values reported in patent US7049292 (dated 2006).

B1: preproinsulin C22-A5 (peptide)
chain: QPLALEGSLQKRGIVEQ
B2: preproinsulin C19-A3 (peptide)
chain: GSLQPLALEGSLQKRGIV
B3: preproinsulin C4-C27 (peptide)
chain: DLQVGQVELGGGPGAGSLQPLALE
B4: preproinsulin C13-C32 (peptide)
chain: GGGPGAGSLQPLALEGSLQK

These binders were tested against HLA-DR4 (human) (assay: competition).
B1 was tested, and the IC50 was 400 nM.
Work on B2 yielded an IC50 of 500 nM.
Work on B3 yielded an IC50 of 33000 nM.
B4 gave an IC50 of 5000 nM.
